According to the supplement of paper PMC7877785:
± gives the uncertainty stated by the source.

Assay: self-splicing fitness, log relative to wild type (ln ratio); higher = more splicing; Tetrahymena group I intron in knt gene, E. coli kanamycin selection, DiMSum; sequences stand for … in CUCUCU…GGAGGGAAAAGUUAUCAGGCAUGCACCUGGUAGCUAGUCUUUAAACCAAUAGAUUGCAUCGGUUUAAAAGGCAAGACCGUCAAAUUGCGGGAAAGGGGUCAACAGCCGUUCAGUACCAAGUCUCAGGGGAAACUUUGAGAUGGCCUUGCAAAGGGUAUGGUAAUAAGCUGACGGACAUGGUCCUAACCACGCAGCCAAGUCCUAAGUCAACAGAUCUUCUGUUGAUAUGGAUGCAGUUCACAGACUAAAUGUCGGUCGGGGAAGAUGUAUUCUUCUCAUAAGAUAUAGUCGGACCUCUCCUUAAUGGGAGCUAGCGGAUGAAGUGAUGCAACACUGGAGCCGCUGGGAACUAAUUUGUAUGCGAAAGUAUAUUGAUUAGUUUUGGAGUACUCGUGGUCG
Summary of the method: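 Six replicate transformations of E. coli BL21(DE3) with a pET-22b(+) library were grown overnight at 37°C or 30°C. The library randomised all eight P1ex-region intron nucleotides, the intron lying in the knt kanamycin-resistance gene, and plates were LB agar with or without 25 μg/mL kanamycin plus 100 μg/mL carbenicillin, 50 μM IPTG and 0.2% rhamnose. Pooled colonies were amplicon-sequenced on an Illumina HiSeq 2500, and fitness is the DiMSum error-weighted combination of wild-type-normalised replicate fold changes, kanamycin versus none.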

Sequence	self-splicing fitness (ln) (30 °C)	self-splicing fitness (ln) (37 °C)
UCGUAGCAAUAUUACGAGGU	-3.27 ± 0.21	-2.06 ± 0.19
GAAAAGCAAUAUUACGAUGG	-2.73 ± 0.13	-0.913 ± 0.12
GUUGAGCAAUAUUACGACGC	-1.95 ± 0.22	1.05 ± 0.26
GCCUAGCAAUAUUACGCAUC	-0.219 ± 0.066	0.571 ± 0.091
CACAAGCAAUAUUACGUUUA	-2.95 ± 0.15	-1.95 ± 0.13
CUCGAGCAAUAUUACGUCCA	-1.95 ± 0.25	-3.15 ± 0.47
CUAAAGCAAUAUUACGAUUC	-3.33 ± 0.31	-3.73 ± 0.46
AGUUAGCAAUAUUACGGUAC	-1.49 ± 0.2	-2.76 ± 0.28
UGUGAGCAAUAUUACGUUGA	-2.82 ± 0.14	-2.11 ± 0.15
GGCAAGCAAUAUUACGGCUA	-0.251 ± 0.11	1.23 ± 0.15
GAUUAGCAAUAUUACGAGUU	-2.53 ± 0.14	-0.583 ± 0.11
CUUUAGCAAUAUUACGUCUA		-2.26 ± 0.29
UACAAGCAAUAUUACGGGAA	-2.41 ± 0.12	-1.6 ± 0.097
AGCUAGCAAUAUUACGGUAU	-1.44 ± 0.08	-0.9 ± 0.1
UGCCAGCAAUAUUACGGUAG	-1.89 ± 0.12	-0.428 ± 0.11
GCCUAGCAAUAUUACGCCCU	-0.974 ± 0.097	0.335 ± 0.13
GGAAAGCAAUAUUACGGGCC	-2.41 ± 0.23	-2.16 ± 0.32
AUAGAGCAAUAUUACGCAAA	-2.79 ± 0.2	-1.03 ± 0.18
CACCAGCAAUAUUACGAAGG	-1.1 ± 0.046	-0.304 ± 0.077
AGUAAGCAAUAUUACGCUGA	-1.98 ± 0.33	-2.29 ± 0.31
AUGUAGCAAUAUUACGAGGC		-1.47 ± 0.28
GGAAAGCAAUAUUACGAUCC	-3.2 ± 0.39	
UCUUAGCAAUAUUACGGGUU	-2.2 ± 0.15	-1.61 ± 0.18
UGCAAGCAAUAUUACGCUCG	-3.78 ± 0.27	-1.83 ± 0.2
CAAUAGCAAUAUUACGGGUU	-4.25 ± 0.2	-2.31 ± 0.14

Sequence	self-splicing fitness (ln) (30 °C)	self-splicing fitness (ln) (37 °C)
GCCUAGCAAUAUUACGUUCC	-1.1 ± 0.17	0.341 ± 0.19
GCUAAGCAAUAUUACGGAGA	-3.1 ± 0.21	-2.49 ± 0.23
CUAGAGCAAUAUUACGGGCA		-2.34 ± 0.36
GUUGAGCAAUAUUACGUUAC	-2.2 ± 0.13	-2.21 ± 0.24
GCGGAGCAAUAUUACGAUAG	-2.96 ± 0.38	-2.67 ± 0.44
GAGUAGCAAUAUUACGUCCC	-0.805 ± 0.21	-0.255 ± 0.23
CGCUAGCAAUAUUACGCGUC	-3.34 ± 0.32	-3.09 ± 0.39
GGAAAGCAAUAUUACGUUUA	-1.89 ± 0.11	-1.16 ± 0.11
GAAUAGCAAUAUUACGUUAG	-3.39 ± 0.2	-1.94 ± 0.18
GAGUAGCAAUAUUACGGCCC	-0.847 ± 0.18	0.0966 ± 0.35
GUCUAGCAAUAUUACGUUAG	-2.42 ± 0.16	-2.28 ± 0.21
ACUUAGCAAUAUUACGCACA	-1.26 ± 0.12	-1.02 ± 0.12
CUGCAGCAAUAUUACGCUAG	-3.01 ± 0.17	-2.02 ± 0.24
CGCCAGCAAUAUUACGGUGG	-2.06 ± 0.09	-2.56 ± 0.18
AUCAAGCAAUAUUACGGCCU	-0.508 ± 0.05	0.15 ± 0.066
ACUUAGCAAUAUUACGGGUA	-1.14 ± 0.11	-1.54 ± 0.14
UUAGAGCAAUAUUACGUUAU	-3.14 ± 0.16	-2.14 ± 0.19
GUGUAGCAAUAUUACGUAAU	-1.75 ± 0.12	-0.371 ± 0.12
GGGGAGCAAUAUUACGUACU	-1.58 ± 0.17	-0.886 ± 0.16
AAAUAGCAAUAUUACGUAAU	-3.04 ± 0.12	-1.75 ± 0.12
GGACAGCAAUAUUACGCGGU	-4.03 ± 0.23	-1.6 ± 0.15
CAAGAGCAAUAUUACGCUGA	-2.97 ± 0.19	-2.08 ± 0.21
CUCAAGCAAUAUUACGAAAG	-2.12 ± 0.11	-0.747 ± 0.13
AUCUAGCAAUAUUACGACCC	-0.615 ± 0.21	0.543 ± 0.31
AUCGAGCAAUAUUACGUGAG	-1.78 ± 0.11	-1.53 ± 0.15

Sequence	self-splicing fitness (ln) (30 °C)	self-splicing fitness (ln) (37 °C)
UGGGAGCAAUAUUACGUGGA	-2.94 ± 0.44	-2.11 ± 0.2
UAAAAGCAAUAUUACGUGGA	-2.94 ± 0.13	-1.52 ± 0.1
GACGAGCAAUAUUACGGAUG	-2.45 ± 0.24	-1.12 ± 0.16
GGCUAGCAAUAUUACGAGGU	-3.02 ± 0.42	-1.07 ± 0.18
CAAUAGCAAUAUUACGCCGG	0.0303 ± 0.12	0.077 ± 0.15
UGCUAGCAAUAUUACGGUGU	-3.16 ± 0.14	-2.38 ± 0.19
GUUCAGCAAUAUUACGCGUU	-0.588 ± 0.062	0.431 ± 0.067
AUACAGCAAUAUUACGACGA	-1.84 ± 0.13	-0.966 ± 0.13
AACGAGCAAUAUUACGUUUC	-3.05 ± 0.19	-2.42 ± 0.19
AAUGAGCAAUAUUACGUCCG	-4.29 ± 0.39	-3.13 ± 0.29
CCUUAGCAAUAUUACGCAAG		-3.09 ± 0.33
UCAGAGCAAUAUUACGUAUA	-3.46 ± 0.27	-2.44 ± 0.23
UUAUAGCAAUAUUACGGAUU	-3.1 ± 0.43	-2.02 ± 0.29
AUGCAGCAAUAUUACGAACU	-0.238 ± 0.1	0.379 ± 0.11
GCUUAGCAAUAUUACGCUCA	-1.34 ± 0.23	-0.203 ± 0.22
AUUGAGCAAUAUUACGACGG	-4.09 ± 0.31	-3.4 ± 0.26
GCUAAGCAAUAUUACGACCG	-0.349 ± 0.17	0.0102 ± 0.24
GAUCAGCAAUAUUACGGCGA	-0.479 ± 0.15	-0.214 ± 0.15
CGUAAGCAAUAUUACGCACG	-1.76 ± 0.14	-1.06 ± 0.17
CCUGAGCAAUAUUACGUGAC	-3.82 ± 0.25	-2.17 ± 0.22
UGACAGCAAUAUUACGCAUA	-0.976 ± 0.07	0.0999 ± 0.082
AAUUAGCAAUAUUACGGCUU	-0.0634 ± 0.092	0.169 ± 0.13
UACUAGCAAUAUUACGGUUC	-2.29 ± 0.29	-1.63 ± 0.39
ACCGAGCAAUAUUACGACGA	-1.16 ± 0.15	-0.75 ± 0.15
AACGAGCAAUAUUACGUCCG		-2.07 ± 0.29

Sequence	self-splicing fitness (ln) (30 °C)	self-splicing fitness (ln) (37 °C)
CCUGAGCAAUAUUACGAGUU	-3.99 ± 0.39	
GUCGAGCAAUAUUACGUUUU	-3.92 ± 0.32	-2.07 ± 0.19
UGAAAGCAAUAUUACGCUAC	-3.01 ± 0.28	-1.75 ± 0.33
ACCGAGCAAUAUUACGUAAU	-3.19 ± 0.12	-1.54 ± 0.13
GCUGAGCAAUAUUACGGCGG	-1.79 ± 0.22	
AGAAAGCAAUAUUACGCAGG	-2.89 ± 0.15	-1.4 ± 0.15
CGAAAGCAAUAUUACGUGCC	-3.18 ± 0.17	-1.95 ± 0.17
AGGCAGCAAUAUUACGCUCC	-3.69 ± 0.4	-2.01 ± 0.33
UGAAAGCAAUAUUACGCCCC	-1.35 ± 0.43	0.00457 ± 0.49
CAGCAGCAAUAUUACGUGUU	-4.61 ± 0.22	-2.5 ± 0.13
GAAGAGCAAUAUUACGAAGA	-2.62 ± 0.26	-2.48 ± 0.24
AGCGAGCAAUAUUACGCUGG	-3.39 ± 0.28	-3.38 ± 0.42
CGGAAGCAAUAUUACGAGCG	-1.14 ± 0.098	-1.11 ± 0.095
GAUCAGCAAUAUUACGUCGC	-1.11 ± 0.1	0.0313 ± 0.11
ACAUAGCAAUAUUACGCUGU	-3.64 ± 0.18	-2.69 ± 0.22
AAGAAGCAAUAUUACGCACU	-0.114 ± 0.063	-0.103 ± 0.081
UUAAAGCAAUAUUACGCAAA	-1.1 ± 0.079	-0.177 ± 0.12
AGAAAGCAAUAUUACGUGAA	-2.39 ± 0.13	-1.96 ± 0.12
CACGAGCAAUAUUACGUCCG	-1.34 ± 0.092	-0.226 ± 0.096
GUGUAGCAAUAUUACGUAUC	-1.01 ± 0.29	
GCUCAGCAAUAUUACGGCCU	-1.6 ± 0.14	-0.188 ± 0.16
GGGUAGCAAUAUUACGCUAA	-1.32 ± 0.29	-0.0326 ± 0.25
CGUUAGCAAUAUUACGGGGU	-3.72 ± 0.24	-2.03 ± 0.35
